The numbers were not newly measured in paper PMC2945288, which cites them from elsewhere.

One may read the Kd as the concentration at which binding is half-saturated.

The target of the data set is coat protein (procapsid) (Salmonella phage P22) (UniProt P26747).
Sequence of UniProt P26747 (P26747 2-430): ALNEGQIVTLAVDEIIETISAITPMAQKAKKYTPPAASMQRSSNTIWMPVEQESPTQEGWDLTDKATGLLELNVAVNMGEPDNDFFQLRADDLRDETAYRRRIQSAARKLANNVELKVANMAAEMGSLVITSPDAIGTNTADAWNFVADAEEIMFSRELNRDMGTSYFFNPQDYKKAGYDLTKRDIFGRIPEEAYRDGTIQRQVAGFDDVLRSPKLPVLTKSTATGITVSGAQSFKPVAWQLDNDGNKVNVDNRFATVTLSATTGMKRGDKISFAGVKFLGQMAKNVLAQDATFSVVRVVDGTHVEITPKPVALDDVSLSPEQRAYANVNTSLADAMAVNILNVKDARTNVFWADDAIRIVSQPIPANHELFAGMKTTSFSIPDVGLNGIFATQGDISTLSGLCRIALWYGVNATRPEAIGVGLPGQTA

As for “scaffolding protein (loosely bound) (from UniProt P26748)”, the equilibrium dissociation constant (Kd) is 28 µM.
